Assay results from paper PMC4051425.
Where two headings read alike, the source gives them in different places.

Legend:
[1] = target: T1, TRBP-RBD2 (second dsRBD of TRBP) (UniProt Q15633 159-227); assay: EMSA
T1 sequence: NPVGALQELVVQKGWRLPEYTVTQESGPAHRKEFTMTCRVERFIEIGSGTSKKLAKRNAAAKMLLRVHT

[2] = target: T1, TRBP-RBD2 (second dsRBD of TRBP); assay: EMSA; remark: listed apart in the source

B1: 25-bp dsRNA (dsRNA)
RNA 1: GCUUGUCGGGAGCGCCACCCUCUGC
RNA 2: GCAGAGGGUGGCGCUCCCGACAAGC
Question: Does B1 bind [1]?
Answer: binds

B2: 25-bp dsDNA (dsDNA)
DNA 1: GCTTGTCGGGAGCGCCACCCTCTGC
DNA 2: GCAGAGGGTGGCGCTCCCGACAAGC
Question: Does B2 bind [2]?
Answer: no binding
